The record followed here is the supplement of paper PMC5998384.

Data set [1] has as its system HeLa Kyoto. The experiment in a line: thermal stability score vs G1/S (z-score of summed log2 fold changes over temperatures); higher = more thermally stable than in G1/S.
For data set [2], the system named is HeLa Kyoto. In words: solubility change mitosis vs G1/S (difference of NP-40 vs SDS log2 ratios) (log2 ratio difference); higher = more soluble in mitosis.
Data set [3] concerns HeLa Kyoto. In words: melting temperature (median over replicates), in situ; higher = more thermally stable.
Data set [4] deals with HeLa Kyoto. The experiment in a line: solubility in G1/S (NP-40 vs SDS abundance) (log2 ratio); higher = more soluble. The note with it: cell cycle stage: G1/S.
[5] abbreviates: cell cycle stage: early G1 (4.5 h after nocodazole release).
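Throughout, for melting temperature (median over replicates), in situ: HeLa Kyoto cells synchronized by double thymidine or nocodazole block, proteins quantified by TMT10plex mass spectrometry, three independent biological replicates.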
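Throughout, for solubility change mitosis vs G1/S (difference of NP-40 vs SDS log2 ratios): synchronized HeLa Kyoto cells (double thymidine block for G1/S, nocodazole release for mitosis), protein amounts in NP-40 versus SDS lysates quantified by mass spectrometry, three biological replicates.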
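Throughout, for solubility in G1/S (NP-40 vs SDS abundance): HeLa Kyoto cells arrested at G1/S by double thymidine block, proteins quantified by TMT10plex mass spectrometry in mild NP-40 versus SDS extracts, three biological replicates.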
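Throughout, for thermal stability score vs G1/S (z-score of summed log2 fold changes over temperatures): synchronized HeLa Kyoto cells, proteins quantified by TMT10plex mass spectrometry, three biological replicates, mitosis taken 0.5 h after nocodazole release, G1/S directly after double thymidine block.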

Chain of IDH3B (chain, as listed by the source): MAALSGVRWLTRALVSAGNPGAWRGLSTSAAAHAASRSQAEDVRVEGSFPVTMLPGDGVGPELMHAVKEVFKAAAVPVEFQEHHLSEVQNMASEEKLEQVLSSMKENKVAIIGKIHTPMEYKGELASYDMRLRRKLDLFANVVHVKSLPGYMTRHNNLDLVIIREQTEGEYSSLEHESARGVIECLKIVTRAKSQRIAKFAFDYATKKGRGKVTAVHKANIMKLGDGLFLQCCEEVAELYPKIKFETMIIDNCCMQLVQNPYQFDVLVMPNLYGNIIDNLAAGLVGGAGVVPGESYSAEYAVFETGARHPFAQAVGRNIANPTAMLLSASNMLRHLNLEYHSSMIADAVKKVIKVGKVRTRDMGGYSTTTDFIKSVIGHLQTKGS
Chain of MSI2 (chain, as listed by the source): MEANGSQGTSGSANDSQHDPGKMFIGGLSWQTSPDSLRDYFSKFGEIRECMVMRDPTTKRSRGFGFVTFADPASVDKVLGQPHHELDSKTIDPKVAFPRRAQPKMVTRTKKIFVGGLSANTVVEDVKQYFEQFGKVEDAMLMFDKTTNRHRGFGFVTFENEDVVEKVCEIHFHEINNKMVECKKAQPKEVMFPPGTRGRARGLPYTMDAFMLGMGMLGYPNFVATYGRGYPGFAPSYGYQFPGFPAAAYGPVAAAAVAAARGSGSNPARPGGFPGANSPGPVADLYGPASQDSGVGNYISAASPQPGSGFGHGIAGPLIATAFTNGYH

In the case of MSI2, the figures for the thermal stability score in data set [1] (setting [5]) and in data set [1] (cell cycle stage: mitosis) were -0.0604 and -1.64, respectively. Besides, the “solubility change mitosis (log2)” value in data set [2] is 0.0111. The melting temperature in data set [3] (cell cycle stage: G1/S) was determined as 51 °C; in data set [3] (cell cycle stage: mitosis) it was 50.8 °C. Further, in data set [4], the “solubility in G1/S (log2)” value stood at 0.473.
For HNRNPK, the thermal stability score in data set [1] (setting [5]) was -0.521; in data set [1] (cell cycle stage: mitosis), 2.21. In addition, the “solubility change mitosis (log2)” value in data set [2] was 0.0123. The figures for the melting temperature in data set [3] (cell cycle stage: G1/S) and in data set [3] (cell cycle stage: mitosis) were 49.7 °C and 49.9 °C, respectively. In addition, the “solubility in G1/S (log2)” value in data set [4] was found to be 0.317.
In the case of “MGRAGAAAVIPGLALLWAVGLGSAAPSPPRLRLSFQELQAWHGLQTFSLERTCCYQALLVDEERGRLFVGAENHVASLNLDNISKRAKKLAWPAPVEWREECNWAGKDIGTECMNFVKLLHAYNRTHLLACGTGAFHPTCAFVEVGHRAEEPVLRLDPGRIEDGKGKSPYDPRHRAASVLVGEELYSGVAADLMGRDFTIFRSLGQRPSLRTEPHDSRWLNEPKFVKVFWIPESENPDDDKIYFFFRETAVEAAPALGRLSVSRVGQICRNDVGGQRSLVNKWTTFLKARLVCSVPGVEGDTHFDQLQDVFLLSSRDHRTPLLYAVFSTSSSIFQGSAVCVYSMNDVRRAFLGPFAHKEGPMHQWVSYQGRVPYPRPGMCPSKTFGTFSSTKDFPDDVIQFARNHPLMYNSVLPTGGRPLFLQVGANYTFTQIAADRVAAADGHYDVLFIGTDVGTVLKVISVPKGSRPSAEGLLLEELHVFEDSAAVTSMQISSKRHQLYVASRSAVAQIALHRCAAHGRVCTECCLARDPYCAWDGVACTRFQPSAKRRFRRQDVRNGDPSTLCSGDSSRPALLEHKVFGVEGSSAFLECEPRSLQARVEWTFQRAGVTAHTQVLAEERTERTARGLLLRRLRRRDSGVYLCAAVEQGFTQPLRRLSLHVLSATQAERLARAEEAAPAAPPGPKLWYRDFLQLVEPGGGGSANSLRMCRPQPALQSLPLESRRKGRNRRTHAPEPRAERGPRSATHW [SEMA3B]”, the thermal stability score worked out at 4.5 in data set [1] (setting [5]) and 7.7 in data set [1] (cell cycle stage: mitosis). Moreover, in data set [2], the “solubility change mitosis (log2)” value was -0.384. In addition, the melting temperature in data set [3] (cell cycle stage: G1/S) amounted to 55.1 °C; in data set [3] (cell cycle stage: mitosis), 57.9 °C. Further, the “solubility in G1/S (log2)” value in data set [4] is -0.625.
Turning to IDH3B, the results for the thermal stability score in data set [1] (setting [5]) and in data set [1] (cell cycle stage: mitosis) were -1.39 and -2, respectively. Besides, the “solubility change mitosis (log2)” value in data set [2] was -0.00994. Also, the melting temperature in data set [3] (cell cycle stage: G1/S) was 54.2 °C; in data set [3] (cell cycle stage: mitosis), 53.5 °C. The “solubility in G1/S (log2)” value in data set [4] was determined as 0.298.
For the substance “MEGQRWLPLEANPEVTNQFLKQLGLHPNWQFVDVYGMDPELLSMVPRPVCAVLLLFPITEKYEVFRTEEEEKIKSQGQDVTSSVYFMKQTISNACGTIGLIHAIANNKDKMHFESGSTLKKFLEESVSMSPEERARYLENYDAIRVTHETSAHEGQTEAPSIDEKVDLHFIALVHVDGHLYELDGRKPFPINHGETSDETLLEDAIEVCKKFMERDPDELRFNAIALSAA [UCHL3]”, the figures for the thermal stability score in data set [1] (setting [5]) and in data set [1] (cell cycle stage: mitosis) were 0.593 and -0.422, respectively. For the same substance, in data set [2], the “solubility change mitosis (log2)” value came to 0.183. Besides, the melting temperature in data set [3] (cell cycle stage: G1/S) and in data set [3] (cell cycle stage: mitosis) was 52.2 °C each time. Also, the “solubility in G1/S (log2)” value in data set [4] amounted to 0.205.
“MTSEVIEDEKQFYSKAKTYWKQIPPTVDGMLGGYGHISSIDINSSRKFLQRFLREGPNKTGTSCALDCGAGIGRITKRLLLPLFREVDMVDITEDFLVQAKTYLGEEGKRVRNYFCCGLQDFTPEPDSYDVIWIQWVIGHLTDQHLAEFLRRCKGSLRPNGIIVIKDNMAQEGVILDDVDSSVCRDLDVVRRIICSAGLSLLAEERQENLPDEIYHVYSFALR [NTMT1]”: the thermal stability score was determined as 1.31 in data set [1] (setting [5]) and 1.61 in data set [1] (cell cycle stage: mitosis). For the same substance, the “solubility change mitosis (log2)” value in data set [2] was -0.15. The values for the melting temperature in data set [3] (cell cycle stage: G1/S) and in data set [3] (cell cycle stage: mitosis) were 49.9 °C and 51.2 °C, respectively. Also, in data set [4], the “solubility in G1/S (log2)” value turned out to be 0.238.
As for “MAPWPPKGLVPAMLWGLSLFLNLPGPIWLQPSPPPQSSPPPQPHPCHTCRGLVDSFNKGLERTIRDNFGGGNTAWEEENLSKYKDSETRLVEVLEGVCSKSDFECHRLLELSEELVESWWFHKQQEAPDLFQWLCSDSLKLCCPAGTFGPSCLPCPGGTERPCGGYGQCEGEGTRGGSGHCDCQAGYGGEACGQCGLGYFEAERNASHLVCSACFGPCARCSGPEESNCLQCKKGWALHHLKCVDIDECGTEGANCGADQFCVNTEGSYECRDCAKACLGCMGAGPGRCKKCSPGYQQVGSKCLDVDECETEVCPGENKQCENTEGGYRCICAEGYKQMEGICVKEQIPESAGFFSEMTEDELVVLQQMFFGIIICALATLAAKGDLVFTAIFIGAVAAMTGYWLSERSDRVLEGFIKGR [CRELD1]”, the thermal stability score in data set [1] (setting [5]) came to 0.91; in data set [1] (cell cycle stage: mitosis), 1.48. For the same substance, the “solubility change mitosis (log2)” value in data set [2] was -0.0647. Also, the figures for the melting temperature in data set [3] (cell cycle stage: G1/S) and in data set [3] (cell cycle stage: mitosis) were 53.8 °C and 53 °C, respectively. Moreover, in data set [4], the “solubility in G1/S (log2)” value was -0.215.
On to SRSF6, for which the thermal stability score in data set [1] (setting [5]) was -0.248; in data set [1] (cell cycle stage: mitosis), -2.07. Moreover, the “solubility change mitosis (log2)” value in data set [2] came out at 0.385. Further, the melting temperature in data set [3] (cell cycle stage: G1/S) was found to be 49.8 °C; in data set [3] (cell cycle stage: mitosis), 50.6 °C. Besides, the “solubility in G1/S (log2)” value in data set [4] was -0.646.
As to “MASQLQNRLRSALALVTGAGSGIGRAVSVRLAGEGATVAACDLDRAAAQETVRLLGGPGSKEGPPRGNHAAFQADVSEARAARCLLEQVQACFSRPPSVVVSCAGITQDEFLLHMSEDDWDKVIAVNLKGTFLVTQAAAQALVSNGCRGSIINISSIVGKVGNVGQTNYAASKAGVIGLTQTAARELGRHGIRCNSVLPGFIATPMTQKVPQKVVDKITEMIPMGHLGDPEDVADVVAFLASEDSGYITGTSVEVTGGLFM [HSD17B8]”, the thermal stability score is -0.337 in data set [1] (setting [5]) and -1.5 in data set [1] (cell cycle stage: mitosis). In addition, the “solubility change mitosis (log2)” value in data set [2] stood at 0.119. Also, the results for the melting temperature in data set [3] (cell cycle stage: G1/S) and in data set [3] (cell cycle stage: mitosis) were 55.3 °C and 56.3 °C, respectively. Further, the “solubility in G1/S (log2)” value in data set [4] was 0.368.
